Like-named read-outs stand apart in the source and are kept apart here.
Tests used:
[1] = target: PKM2 (pyruvate kinase M2) (mouse (endogenous in cerebellar tissue)) (UniProt P52480); assay: cross-linking; 5 mM disuccinimidyl suberate (DSS), 30 min, room temperature, quenched with Tris, then immunoblot for PKM2; mouse cerebellar tissue of Atm-WT and Atm-KO, also with TEPP-46
[2] = target: PKM2 (pyruvate kinase M2) (mouse (endogenous in cerebellar tissue)) (UniProt P52480); assay: as above; remark: listed apart in the source
[3] = target: ATM (ataxia-telangiectasia mutated) kinase (mouse (endogenous in cerebellar tissue)) (UniProt Q62388); assay: non-reducing SDS-PAGE and immunoblot; ex vivo mouse cerebellar tissue culture exposed to glargine (100 nM, 2 h); proteins denatured in 2% SDS without boiling, separated under nonreducing conditions at 4 °C; the NOX4 antagonist GLX7013114 or shRNA impeded the insulin-induced dimerization

Sequence of PKM2 (pyruvate kinase M2), P52480 1-531 (enzyme; other documents disagree on this pair) (P52480 whole entry): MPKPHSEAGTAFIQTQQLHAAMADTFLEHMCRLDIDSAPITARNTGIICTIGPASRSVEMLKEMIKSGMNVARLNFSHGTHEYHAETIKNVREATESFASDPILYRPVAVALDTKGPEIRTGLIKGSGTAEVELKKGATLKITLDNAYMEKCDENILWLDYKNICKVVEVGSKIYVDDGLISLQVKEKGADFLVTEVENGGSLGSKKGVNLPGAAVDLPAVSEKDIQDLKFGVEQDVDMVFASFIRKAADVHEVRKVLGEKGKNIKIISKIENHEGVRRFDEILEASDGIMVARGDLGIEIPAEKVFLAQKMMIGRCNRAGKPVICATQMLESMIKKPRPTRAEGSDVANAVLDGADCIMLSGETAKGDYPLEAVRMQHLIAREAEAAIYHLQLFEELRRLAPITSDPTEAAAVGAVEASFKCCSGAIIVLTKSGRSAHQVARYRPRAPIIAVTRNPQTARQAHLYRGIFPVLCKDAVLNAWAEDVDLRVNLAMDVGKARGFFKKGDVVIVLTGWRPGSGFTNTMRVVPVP

Substance | stoichiometry N [1] | stoichiometry N [2] | stoichiometry N [3]
PKM2 (pyruvate kinase M2), P52480 1-531 (enzyme; other documents disagree on this pair) | 4 | 2 | 
ATM (ataxia-telangiectasia mutated) kinase, Q62388 1-3066 |  |  | 2

Source: publication PMC12540671
